Results taken from patent US7341992B2, “Lectin-like domain of thrombomodulin and its therapeutic use” (Vlaams Interuniversitair Instituut Voor Biotechnologie VZW, priority 2001, dated 2008).
Entries after “also recorded” stand apart in the source; their conditions may differ.

Tests used:
[1] = system: fEND.5 cells; assay: Static adhesion assay: human neutrophils on activated fEND.5 cells; format: cell-based, murine endothelial cell line; details: for LPS-induced adhesion of human neutrophils to fEND.5 cells (effect in words) / PMN Adhesion to LPS-stimulated fEND.5 Cells, Mean: LPS 20 μg/ml 3 hrs; for PMN Adhesion to LPS-stimulated fEND.5 Cells, Mean / PMN Adhesion to TNF-stimulated fEND.5 Cells, Mean: human neutrophils 50,000 per well; for TNF-induced adhesion of human neutrophils to fEND.5 cells (effect in words) / PMN Adhesion to TNF-stimulated fEND.5 Cells, Mean: TNFα 200 U/ml 3 hrs
Method: Static adhesion assays using human neutrophils (50,000 per well) and confluent fEND.5 cells in 24-well plates were performed exactly as described (see below—Methods section 11). Where noted, TNFα (200 U/ml) or LPS 20 μg/ml, were used to activate the fEND.5 cells for 3 hrs. PMNs were co-incubated with one of the recombinant human TM fragments 1, 2 or 4, (SEQ ID NO 1, 2, 4) or with HPLC-purified peptides representing human TM fragments 3,6 or 7 (SEQ ID NO 3, 6, 7). Tables 11-17 show results, where the amount of recombinant fragment in μg is shown on the bar graphs, and * indicates p<0.05 as compared with buffer control (i.e. without recombinant protein) under the same conditions. In all cases, appropriate controls were used for comparisons.
(§1) Endothelial cells were plated in 24-well dishes and grown to confluence. Following 2 washes of the cell monolayers with HBSS, freshly prepared BCECF-AM-labeled, neutrophils derived from human peripheral blood, or murine bone marrow-derived PMNs or lymphocytes 50,000 per well, were added in a final volume of 1 ml for 30 minutes at room temperature. The media was decanted and the cell monolayers were gently washed three times with HBSS after which the adherent fluorescently labeled leukocytes were counted with an inverted epiflourescence microscope as described above.

[2] = system: pERK1/2 and NFκB; assay: TNFα-induced pERK1/2 and NFκB in HUVECs; format: cell-based, human; details: TNFα 200 U/ml for 20 minutes
Method: We predicted that soluble lectin-like domain of TM would suppress PMN adhesion by altering regulation of MAP kinase pathways in ECs. Therefore, HUVECs were exposed to TNFα (200 U/ml) for 20 minutes. […] Total ERK1/2 levels remained unchanged.

[3] = system: HUVECs; assay: Rescue of HUVECs from serum starvation-induced cell death; format: cell-based, human; details: 3 days of serum deprivation
Method: Because endothelial cell death is a pathway of sustained tissue damage, we evaluated whether TMlec155 was capable of rescuing HUVECs from serum starvation-induced cell death. After 3 days of serum deprivation, over 95% of HUVECs died. Serum starvation with the addition of TMlec155 at concentrations of 1, 10 and 20 μg/ml rescued 2±0.6%, 18±7% and 34±14% of the cells (p=0.69, p<0.05, p<0.05, respectively compared with serum-starved controls), showing that soluble TM rnay also have pro-survival properties.

[4] = system: TM^LeD/LeD endothelial cells; assay: Static adhesion assay: murine PMNs on endothelial cells from TM^LeD/LeD mice; format: cell-based; details: for PMN Adhesion (# per 15 HPFs): PMNs from wild-type mice
Method: Constitutive levels of circulating soluble TM, composed of proteolytic components of the extracellular domains, are found in the plasma of normal individuals, while quantitative changes occur in different disease states. Purified recombinant TMlec155 was prepared using the Pichia pastoris expression system, and further purified by a series of chromatographic steps as detailed in the methods. In a static adhesion assay on TM^Led/Led endothelial cells, PMNs were co-incubated with TMlec155 at two concentrations. Adhesion of PMNs to the resting endothelial cells was, as before, increased as compared with adhesion to wild-type endothelial cells (Table 9). […] The degree of suppression of adhesion was almost to the level of adhesion to wild-type endothelial cells. […] The role of recombinant TMlec155 in vivo was tested by injecting wild-type mice with LPS 20 μg/gm i.p., followed 5 minutes later with an intravenous bolus of recombinant TMlec155 or buffer alone. After a further 3 hours, the serum cytokine response was determined.
Endothelial tumors were induced to grow in 7 day old mice following intraperitoneal (i.p.) injection of retrovirus carrying the middle T antigen of murine Polyomavirus (PymT). After 10-14 days, the tumors were excised, and endothelial cells were isolated^32.33. Primary cultures of lymphatic endothelial cells were isolated from intraperitoneal lymphangiomas, growth of which was induced by injection of incomplete Freund's adjuvant exactly as described^34. Cells were cultured on collagen or gelatin coated plates in M199 media supplemented with 20% fetal bovine serum, porcine heparin 0.1 mg/ml, endothelial cell mitogen 5 μg/ml (Biomedical Technologies Inc., Stoughton, Mass.), 100 μg/ml penicillin and streptomycin 100 μg/ml. Cell cultures were incubated at 37° C. in a humidified atmosphere of 5% CO2 and 95% air, and experiments were performed at passage 3-8. Over 95% of the cells immuno-stained positively for TM and vWF, confirming the endothelial origin and purity.
Neutrophils and lymphocytes were isolated from bone marrow according to the method of Lowell and Berton ^35. Each population was assessed to be over 95% pure by microscopic analysis after Wright staining.
as §1

[5] = system: IL-1β; assay: Cytokine response in vivo after LPS i.p. in wild-type mice; details: LPS 20 μg/gm i.p.
Method: Table 10: Effect of recombinant TMlec155 on cytokine response in vivo. Wild-type mice were treated with LPS 20 μg/gm i.p., following 5 min later with the noted treatment. Plasma levels of IL-1b were measured 3 hours later
Constitutive levels of circulating soluble TM, composed of proteolytic components of the extracellular domains, are found in the plasma of normal individuals, while quantitative changes occur in different disease states. Purified recombinant TMlec155 was prepared using the Pichia pastoris expression system, and further purified by a series of chromatographic steps as detailed in the methods. In a static adhesion assay on TM^Led/Led endothelial cells, PMNs were co-incubated with TMlec155 at two concentrations. […] After a further 3 hours, the serum cytokine response was determined.
Double antibody sandwich ELISA kits, purchased from R & D Systems Europe (Abingdon, UK), were used to quantitate murine plasma levels of TNFα, IL-1β, IL-6 and IL-10. […] A sensitive and specific radioimmunoassay to quantitate plasma levels of murine FPA was performed as previously reported^24.
Lipopolysaccharide (LPS) from Escherichia coli serotype 0111:B4 (Sigma) was injected intraperitoneally into 10-12 week old mice. For lethality studies, animals were closely monitored each day until either recovery or cessation of breathing. […]

Molecule	LPS-induced adhesion of human neutrophils to fEND.5 cells (effect in words) [1]	PMN Adhesion to LPS-stimulated fEND.5 Cells, Mean ([1]; 1 μg of fragment)	PMN Adhesion to LPS-stimulated fEND.5 Cells, Mean ([1]; 5 μg of fragment)	PMN Adhesion to LPS-stimulated fEND.5 Cells, Mean ([1]; 8 μg of fragment)	PMN Adhesion to LPS-stimulated fEND.5 Cells, Mean ([1]; 15 μg of fragment)	TNF-induced adhesion of human neutrophils to fEND.5 cells (effect in words) [1]	other results
pept n^o 23: HPLC-purified peptide, amino acids 84-97 of SEQ ID NO: 1 (human TM)	significantly suppressed	31.015	21.535	–	–	–	–
pept. N^o 24: HPLC-purified peptide, amino acids 3-33 of SEQ ID NO: 1 (human TM) (PQPGGSQCVEHDCFALYPGPATFLNASQICD; PEPTIDE (1)...(31) Human thrombomodulin fragment 3; listed as Homo sapiens)	significantly suppressed	38.830	44.019	22.000	–	–	–
pr. 680 bp: Recombinant human TM fragment, amino acids 1 to 224 of the mature protein, entire N-terminal domain, expressed in Pichia pastoris (protein, listed as Homo sapiens, PEPTIDE (1)...(224) Human thrombomodulin fragment 1, Recombinant human TM fragment, amino acids 1 to 224 of the mature protein, entire N-terminal domain, expressed in Pichia pastoris) AEPQPGGSQCVEHDCFALYPGPATFLNASQICDGLRGHLMTVRSSVAADVISLLLNGDGGVGRRRLWIGLQLPPGCGDPKRLGPLRGFQWVTGDNNTSYSRWARLDLNGAPLCGPLCVAVSAAEATVPSEPIWEEQQCEVKADGFLCEFHFPATCRPLAVEPGAAAAAVSITYGTPFAARGADFQALPVGSSAAVAPLGLQLMCTAPPGAVQGHWAREAPGAWD	significantly suppressed	–	29.403	24.292	18.333	significantly suppressed	PMN Adhesion to TNF-stimulated fEND.5 Cells, Mean ([1]; 5 μg of fragment): 85.656; PMN Adhesion to TNF-stimulated fEND.5 Cells, Mean ([1]; 10 μg of fragment): 24.303
pr. 400 bp: Recombinant human TM fragment, amino acids 33 to 159 of the mature protein, expressed in Pichia pastoris (protein, listed as Homo sapiens, PEPTIDE (1)...(127) Human thrombomodulin fragment 4, Recombinant human TM fragment, amino acids 33 to 159 of the mature protein, expressed in Pichia pastoris) DGLRGHLMTVRSSVAADVISLLLNGDGGVGRRRLWIGLQLPPGCGDPKRLGPLRGFQWVTGDNNTSYSRWARLDLNGAPLCGPLCVAVSAAEATVPSEPIWEEQQCEVKADGFLCEFHFPATCRPLA	suppressed	–	33.642	29.725	–	suppressed	PMN Adhesion to TNF-stimulated fEND.5 Cells, Mean ([1]; 8 μg of fragment): 53.417; PMN Adhesion to TNF-stimulated fEND.5 Cells, Mean ([1]; 20 μg of fragment): 63.500
TMlec155: Recombinant first 155 amino acids of murine TM, restricted to the lectin-like region, polyhistidine-tagged, expressed in Pichia pastoris (protein, left off: small tags and cut ends, Recombinant first 155 amino acids of murine TM, restricted to the lectin-like region, polyhistidine-tagged, expressed in Pichia pastoris) LSALAKLQPTGSQCVEHECFALFQGPATFLDASQACQRLQGHLMTVRSSVAADVISLLLSQSSMDLGPWIGLQLPQGCDDPVHLGPLRGFQWVTGDNHTSYSRWARPNDQTAPLCGPLCVTVSTATEAAPGEPAWEEKPCETETQGFLCEFYFTA	–	–	–	–	–	–	Accumulation of NFκB [2]: similarly interfered; Accumulation of pERK1/2 [2]: similarly interfered; cells rescued from serum starvation-induced cell death ([3]; 1 μg/ml): 2±0.6%; cells rescued from serum starvation-induced cell death ([3]; 10 μg/ml): 18±7%; cells rescued from serum starvation-induced cell death ([3]; 20 μg/ml): 34±14%; PMN Adhesion (# per 15 HPFs) ([4]; TM^LeD/LeD + TNF endothelial cells, recombinant TMlec155 3.6 mg): 132 ± 90 # per 15 HPFs; PMN Adhesion (# per 15 HPFs) ([4]; TM^LeD/LeD + TNF endothelial cells, recombinant TMlec155 7.2 mg): 153 ± 106 # per 15 HPFs; PMN Adhesion (# per 15 HPFs) ([4]; resting TM^LeD/LeD endothelial cells, recombinant TMlec155 3.6 mg): 15 ± 6 # per 15 HPFs; PMN Adhesion (# per 15 HPFs) ([4]; resting TM^LeD/LeD endothelial cells, recombinant TMlec155 7.2 mg): 12 ± 7 # per 15 HPFs; Adhesion of PMNs to TNFα-activated TM^Led/Led endothelial cells (effect in words) ([4]; static adhesion assay, PMNs co-incubated with TMlec155): significantly reduced; Adhesion of PMNs to resting TM^Led/Led endothelial cells (effect in words) ([4]; static adhesion assay, PMNs co-incubated with TMlec155 at two concentrations): significantly decreased; also recorded: abrogated; also recorded: significant decrease in adhesion; IL-1β levels (effect in words) ([5]; i.v. bolus 5 minutes later, 3 hours, compared with control): significantly suppressed; IL-1β ([5]; treatment i.v. bolus 5 min later, plasma 3 hours later): 286 ± 75 ng/mL
pr. 480 bp: Recombinant human TM fragment, amino acids 1 to 157 of the mature protein, expressed in Pichia pastoris (protein, listed as Homo sapiens, PEPTIDE (1)...(157) Human thrombomodulin fragment 2, Recombinant human TM fragment, amino acids 1 to 157 of the mature protein, expressed in Pichia pastoris) AEPQPGGSQCVEHDCFALYPGPATFLNASQICDGLRGHLMTVRSSVAADVISLLLNGDGGVGRRRLWIGLQLPPGCGDPKRLGPLRGFQWVTGDNNTSYSRWARLDLNGAPLCGPLCVAVSAAEATVPSEPIWEEQQCEVKADGFLCEFHFPATCRP	significantly suppressed	–	27.68	25.50	19.01	–	–
